Results as given in the supplement of paper PMC10126150.
± gives the standard deviation of the averaged measurements.

tested on: ATP; test: switch fluorescence ratio, 500 uM ATP over buffer (Cy3 cluster intensity, sum of 5 cycles each) (fold (ratio)); higher = stronger signal-on switching upon ATP binding; sequences stand for … in TCGTCGGCAGCGTCAGATGTGTATAAGAGACAGTTTTTTTTTTTTTTTTTTTTTTTTT…TC; details: aptamer strand: ATP DNA aptamer (quencher-CACCTGGGGGAGTATTGCGGAGGAAGG + anchor), 100 nM annealed; ATP concentration: 500 uM
Procedure, shortened: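 Exposure to 500 uM ATP lasted 15 min at 22 °C before imaging, and a selection-buffer image was taken beforehand, for Cy3-labelled switching-strand clusters on a modified Illumina MiSeq flow-cell annealed to 100 nM quencher-labelled ATP aptamer. Five buffer/ATP cycles were run with NaOH stripping and re-annealing between them. The fluorescence ratio per cluster is summed target-cycle over summed buffer-cycle Cy3 intensity, averaged per switch-domain sequence. Clusters outside 100-1000 RFU were excluded.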

Sequence | switch fluorescence ratio
AAAAAAAGCT | 1.06 ± 0.075
AAAAAAAGGG | 1.01 ± 0.047
AAAAAAATGC | 0.974 ± 0.037
AAAAAACGCC | 1.02 ± 0.027
AAAAAAGGGT | 1.02 ± 0.021
AAAAAAGGTT | 1.07 ± 0.14
AAAAAATATT | 1.029 ± 0.0043
AAAAAATGCC | 1.07 ± 0.091
AAAAACAGCG | 1.02 ± 0.053
AAAAACTCTG | 1.01 ± 0.079
AAAAATAGGG | 1.03 ± 0.04
AAAAATGTTA | 1.01 ± 0.018
AAAAATTCAG | 0.987 ± 0.045
AAAACATGGA | 0.9537 ± 0.0037
AAAACGTTAC | 1.68 ± 0.02
AAAACGTTTG | 1.025 ± 0.0023
AAAACTGAGC | 1.08 ± 0.031
AAAACTGCGA | 1.03 ± 0.067
AAAACTTTAC | 1.2918 ± 0.00043
AAAAGAAAGC | 0.956 ± 0.03
AAAAGAACGA | 1.05 ± 0.074
AAAAGAATGG | 0.971 ± 0.043
AAAAGACGG | 1 ± 0.062
AAAAGCACGA | 1.09 ± 0.2
AAAAGCCGGG | 0.979 ± 0.16

Sequence | switch fluorescence ratio
AAAAGCGGTA | 1 ± 0.054
AAAAGGGAGC | 1.14 ± 0.14
AAAAGGGGGC | 1.01 ± 0.05
AAAAGGGGGG | 1.02 ± 0.044
AAAAGGGTTA | 0.9976 ± 0.004
AAAAGGTAAA | 1.02 ± 0.021
AAAAGGTGCG | 0.993 ± 0.013
AAAAGGTTAA | 0.968 ± 0.019
AAAAGTAGAA | 0.992 ± 0.023
AAAAGTATAC | 1.06 ± 0.072
AAAAGTCCGC | 1.45 ± 0.062
AAAAGTGGCA | 1.07 ± 0.065
AAAAGTGGGC | 1.07 ± 0.081
AAAAGTGTTA | 0.977 ± 0.027
AAAAGTGTTG | 0.948 ± 0.03
AAAAGTTGCG | 0.9679 ± 0.0076
AAAAGTTTGG | 1 ± 0.015
AAAATAGAAC | 1.01 ± 0.041
AAAATATTCG | 1.01 ± 0.011
AAAATCGCTT | 1.01 ± 0.065
AAAATCGGCG | 1.05 ± 0.073
AAAATCGGGT | 1.03 ± 0.025
AAAATCTAAA | 1.014 ± 0.0068
AAAATGAGTG | 0.985 ± 0.021
AAAATGATTT | 1.02 ± 0.043

Sequence | switch fluorescence ratio
AAAATGCAG | 0.9856 ± 0.0015
AAAATGCGCT | 0.975 ± 0.013
AAAATGCGTG | 0.966 ± 0.059
AAAATGCTTT | 1.01 ± 0.0014
AAAATGGAAA | 1.028 ± 0.0035
AAAATGGATG | 0.983 ± 0.031
AAAATGGCAG | 1.004 ± 0.0089
AAAATGGGTG | 0.976 ± 0.015
AAAATGGGTT | 1 ± 0.059
AAAATTATAT | 1.02 ± 0.035
AAAATTATTT | 1.01 ± 0.021
AAAATTGAAA | 0.988 ± 0.073
AAAATTGCGT | 1.16 ± 0.2
AAAATTGGAA | 1 ± 0.03
AAAATTGTCT | 0.981 ± 0.023
AAAATTTGTG | 0.995 ± 0.017
AAAATTTTTA | 1 ± 0.021
AAACACAAGA | 1.13 ± 0.18
AAACAGGGAT | 1 ± 0.032
AAACAGTTGG | 0.9936 ± 0.0097
AAACATAAGC | 0.991 ± 0.038
AAACATTTCA | 0.976 ± 0.063
AAACCAGTG | 1.175 ± 0.0088
AAACCGGGGG | 1.1 ± 0.085
AAACCTCTGG | 0.965 ± 0.02

Sequence | switch fluorescence ratio
AAACGAGGAG | 1 ± 0.013
AAACGAGGGT | 1.02 ± 0.03
AAACGATGTG | 0.985 ± 0.023
AAACGCAAAG | 1.27 ± 0.3
AAACGGGGCT | 1.02 ± 0.012
AAACTGTAAT | 1.08 ± 0.017
AAACTTGTAC | 1.1 ± 0.036
AAACTTTGTT | 1.02 ± 0.039
AAAGAAAGC | 1.02 ± 0.08
AAAGAAAGCG | 0.997 ± 0.042
AAAGAAATTG | 1.01 ± 0.035
AAAGAACGGG | 1.04 ± 0.023
AAAGAAGCAT | 1.001 ± 0.0059
AAAGAAGGGA | 0.981 ± 0.015
AAAGAAGGGC | 0.938 ± 0.05
AAAGACAGGG | 0.976 ± 0.036
AAAGACGGTT | 0.997 ± 0.013
AAAGAGAAGT | 1.02 ± 0.019
AAAGAGAGTA | 1.01 ± 0.038
AAAGAGCGCC | 0.947 ± 0.03
AAAGAGGAGA | 1.02 ± 0.023
AAAGAGGGG | 0.98 ± 0.029
AAAGAGGGGG | 1.03 ± 0.049
AAAGAGTCCT | 1.01 ± 0.029
AAAGAGTTGA | 1 ± 0.022
